The values below come from patent US20120040403A1 (NANYANG TECHNOLOGICAL UNIVERSITY, published 2012).

This data set deals with the molecule itself. Description: size-exclusion chromatography (Superdex 75). Here is the method:
Gel filtration was performed at 4° C. using the AKTA FPLC system equipped with a Superdex 75 HR 16/60 column (Amersham Biosciences). The buffer used for gel filtration is comprised of 50 mM Tris-Cl (pH 8.0), 300 mM NaCl, 5% Glycerol, 1 mM DTT. Fractions containing the recombinant protein were concentrated using Amicon concentrator (Millipore) to a final concentration of ca. 5 mg/ml as measured using Bradford assay. Concentrated proteins were stored in −80° C. degree after flash-freeze using liquid nitrogen. Mutant proteins were expressed, purified and stored following the same procedure. The molecular weight and oligomeric state of the protein was estimated based on the standard curve generated by using the standard proteins that include albumin, ovalbumin, chemotrypsinogen, RNase A. The final yield of the recombinant protein was 12-15 mg per liter culture for the wild type the mutant enzyme.
For orientation: Size exclusion chromatography separates by hydrodynamic size, large species first.

B1: tDGC mutant R158A (enzyme)
chain: MGSSHHHHHHSSGLVPRGSHMKELEYMAYHDPLTGLPNRRYFFELGNRYLDLAKREGKKVFVLFVDLAGFKAINDTYGHLSGDEVLKTVSKRILDRVARSDVVARYGGDEFTILLYDMKEEYLKSLLERILSTFREPVRVENKHLSVTPNIGVARFPEDGENLEELLKVADMRMYKAKEMKVPYFSLS
notes: Expressed from pET28b(+) with a (His)6 tag; Found as a monomer in solution; also called R158A mutant; mutant tDGC
For the protein B1, the binding result is reported as “no binding”.
